Values joined by “and” are separate entries in the source; they are usually repeats but may differ in a detail not shown here. Equal values may be shown once.

The data set concerns the molecule itself. Kind of data set: cross-linking.

B1: recombinant His-klp9p (natural protein, S. pombe (fission yeast), UniProt Q1MTQ7 1-633, looked up)
chain: MIQIFLRVKKAQPSSDASNKYGFLTVLNDYEILLESPEDSHAYRVSKSKTLEKASFTKVFPPSCTQLDVFSTICAPLIADSLVNMNDTLLFTLGVSGAGKTYTLFGPSDRPGVAFLALDALFYAIKGREASPQTVEFLRSQLEKCKIVEASKFLRGEAPLDIKVPNTEYYASHFPKIEEKNYQYAIYLSFAEIYNDRIFDLLEKASFFGHRHALSLKKSSTSDKKSIAGIQKVFVSNTTEAYKLIQKVLQLRKSTSTKSNSVSSRSHLIMSIELFKVCTKSNKFESCQIDLVDLAGSERTRSAETSGLLLREGASINRSLLTLGQCLEALRRKHEGKQHIIPFRQSKLTELLFHSGHLSGLAGINMLVNIDPFGSFDENAQVMRYSANAREILPPPLNENSGSQSPSHSLLQKSKNTSSTKALTSHLEQLQQENQQLRMLLADADSEMMNLEYEIRQQMTREMEERVSEVERTFLTKLLEESAQGIEYTDQKLEKMGGWMKKLQDENSEKTETIAQLEQIIEELHEELRSLEEESIKESSATQQNENQHKRSSRKLLYEDKQAIQEAHTINTKRKLWPQSTLIQAPNSDDEENVPSPSPKKKVVSPIKPLSPSRRPPLTSLYSGTTDIDINEL
The stoichiometry N is the number of molecules, sites or subunits per partner or assembly. For the protein B1, the “stoichiometry N” value is 2 and 4.
